Positions count from the first letter of the chain named.
T1: human CD3εγ-Fc heterodimer (human)
T1 construct: also called human CD3 εγ protein; recombinant CD3 εγ protein
T1 chain 1: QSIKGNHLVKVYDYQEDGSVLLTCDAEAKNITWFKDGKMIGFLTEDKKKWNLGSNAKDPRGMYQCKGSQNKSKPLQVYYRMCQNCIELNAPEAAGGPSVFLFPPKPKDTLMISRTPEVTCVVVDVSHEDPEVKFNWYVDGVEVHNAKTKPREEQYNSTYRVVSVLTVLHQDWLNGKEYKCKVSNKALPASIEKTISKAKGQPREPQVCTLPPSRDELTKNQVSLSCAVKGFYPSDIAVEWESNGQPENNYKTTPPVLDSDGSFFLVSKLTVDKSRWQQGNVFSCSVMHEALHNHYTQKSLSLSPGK
T1 chain 2: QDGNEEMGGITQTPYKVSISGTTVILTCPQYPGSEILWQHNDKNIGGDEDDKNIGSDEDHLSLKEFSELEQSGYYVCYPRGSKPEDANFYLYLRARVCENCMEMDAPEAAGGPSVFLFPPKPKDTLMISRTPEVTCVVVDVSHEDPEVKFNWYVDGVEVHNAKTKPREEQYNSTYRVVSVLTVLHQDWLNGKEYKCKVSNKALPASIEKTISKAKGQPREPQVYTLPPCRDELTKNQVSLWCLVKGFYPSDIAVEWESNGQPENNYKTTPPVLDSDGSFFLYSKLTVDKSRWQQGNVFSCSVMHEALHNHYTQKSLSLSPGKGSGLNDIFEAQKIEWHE

B1: 5D6 (antibody, V domains shown)
VH: QVQLQQSGAELVRPGASVKLSCKALGYTFADYEIHWVKQTPVHGLEWIGAIHPGSGGTAYNQTFEGKATLTADKSSTTAYMELSSLTSEDSAVYYCTRYYSFAYWGQGTLVTVSA
VL: DVLMTQTPLSLPVSLGDQASISCRSSQSLVHSNGNTYLHWYLQKPGQSPKLLIYKVSNRFSGVPDRFSGSGSGTDFTLKISRVEAEDLGVYFCSQSTHVPLTFGAGTKLELK
notes: Chimeric IgG: murine variable regions on human IgG1 CH1-CH3 and an antibody light chain constant region
B2: 47B6 (antibody, V domains shown)
VH: QVQLQQSGAELMKPGASVKISCKATGYTFSSYWIEWVKQRPGHGLEWIGEILPGSGSTNYNEKFKGKATFTADTSSNTAYMQLSSLTSEDSAVYYCARGYWGQGTLVTVSA
VL: B1 VL with V2I, L3V, T7A, L101R, A105G, L111I
notes: Chimeric human IgG1
B3: 19F1 (antibody, V domains shown)
VH: B1 VH
VL: DVLMTQTPLSLPVSLGDQASISCRSSQSLVHSNGNTYLHWYLQKPGQSPKLLIYKVSNRFSGVPDRFSGSGSGTDFTLKISRVEAEDLGVYFCSQSTHIPTFGGGTKLELK
notes: Chimeric human IgG1
B4: 46C3 (antibody, V domains shown)
VH: QVQLQQSGPELVKPGASVKISCKASGYTFTDYYINWVKQKPGQGLEWIGWIYPGSGNTKYNEKFKGKATLTVDTSSSTAYMQLSSLTSEDTAVYFCARGRWGQGTLVTVSA
VL: B1 VL with L3V, G16R, L101R, A105G
notes: Chimeric human IgG1
B5: 28G4 (antibody, V domains shown)
VH: B1 VH with Q1E, E65K
VL: B1 VL with L29I, H39Q, F92Y, S94F, S96G, T97S, L101Y, A105G, L111I
notes: Chimeric human IgG1
B6: 30B7 (antibody, V domains shown)
VH: B1 VH with K19R, A30T, I34M, T63K, E65K, T77S
VL: B1 VL with L111I
notes: Chimeric human IgG1
B7: 38D2 (antibody, V domains shown)
VH: B1 VH
VL: DVVMTQTPLSLPVSLGDQASISCRSSQSLENSNGNTYLNWYLQKPGQSPQLLIYRVSNRFSGVLDRFSGSGSGTDFTLKISRVEAEDLGVYFCLQVTHVPYTFGGGTKLEIK
notes: Chimeric human IgG1
B8: 39G4 (antibody, V domains shown)
VH: B1 VH
VL: B3 VL with L3V, M4V, I99V, L110I
notes: Chimeric human IgG1
B9: 30A4 (antibody, V domains shown)
VH: B1 VH with T28A, E65K
VL: B1 VL with L3V
notes: Chimeric human IgG1
B10: 41F1 (antibody, V domains shown)
VH: B1 VH
VL: B1 VL with S96N
notes: Chimeric human IgG1
B11: 41H1 (antibody, V domains shown)
VH: B1 VH
VL: B1 VL with L3V, K79R, H98R
notes: Chimeric human IgG1
B12: 29A10 (antibody, V domains shown)
VH: B1 VH with Q1E, E65K
VL: B1 VL with L3V, L111I
notes: Chimeric human IgG1
B13: 34H1 (antibody, V domains shown)
VH: B1 VH
VL: B1 VL with L3V, T97I
notes: Chimeric human IgG1
B14: 42A1 (antibody, V domains shown)
VH: B1 VH with N61S, E65K, Y100F
VL: B1 VL with L3V, M4V, V99A, L101Y, A105G, K108R, L111I
notes: Chimeric human IgG1
B15: h49G8VHv6VKv2 (antibody, V domains shown)
VH: QVQLVQSGAEVKKPGSSVKVSCKASGYTFADYEIHWVRQAPGQGLEWMGAIHPGSGGTAYAQKFQGRVTLTADESSTTAYMELSSLRSEDTAVYYCTRYYSFAYWGQGTLVTVSS
VL: DVVMTQSPLSLPVTPGEPASISCRSSQSIVHSNYNTYLEWYLQKPGQSPQLLIYKVSNRFSGVPDRFSGSGSGTDFTLKISRVEAEDVGVYFCLQVTHVPLTFGQGTKLEIK
notes: Humanized 49G8; The name is read as h49G8VHv6 plus h49G8VKv2
B16: h49G8VHv6VKv5 (antibody, V domains shown)
VH: B15 VH
VL: B15 VL with Y34T
notes: Humanized 49G8
B17: h49G8VHv6VKv4 (antibody, V domains shown)
VH: B15 VH
VL: B15 VL with Y34S
notes: Humanized 49G8
B18: aCD3-hVH8/VL5 (antibody, V domains shown)
VH: EVQLVESGGGLVQPGGSLRLSCAASGFTFNTYAMNWVRKAPGKGLEWVGRIRSKYNNYATYYADSVKDRFTISRDDSKNSLYLQMNSLKTEDTAVYYCARHGNFGNSYVSWFAYWGQGTLVTVSS
VL: QAVVTQEPSLTVSPGGTVTLTCRSSTGAVTTSNYANWVQEKPGQAPRGLIGGTNKRAPWTPARFSGSLLGGKAALTITGAQAEDEAEYYCVLWYSNLWVFGGGTKLTVL
notes: Human IgG4, lambda
B19: aCD3-hVH9/VL3 (antibody, V domains shown)
VH: B18 VH with A99V
VL: B18 VL with Q1E, R23E, T26D, R56E, I77L, T78S, A82P, V91A
notes: Human IgG4, lambda

molecular target: T2, recombinant human GPC3 protein (human, UniProt P51654 25-563); assay: BLI (Octet), antibody on Protein A probe
T2 construct: also called human GPC3 full-length protein; recombinant GPC3 protein
Description: (§1) Using BLI technology (Octet), the antibody to be tested was captured on the Protein A probe. The binding capacity with human GPC3 protein (10 μg/ml as the initial concentration, 2-fold gradient, a total of 5 concentration points) was detected. The affinity constant KD was obtained according to the association and dissociation rates.

| Binder | Kd [nM] | koff [s⁻¹] | kon [M⁻¹ s⁻¹] |
| --- | --- | --- | --- |
| B1 | 27.7 | 0.00292 | 105000 |
| B2 | 48.2 | 0.00149 | 30800 |
| B3 | 18.3 | 0.00213 | 116000 |
| B4 | 24.3 | 0.00154 | 63600 |
| B5 | 11.3 | 0.00112 | 98900 |
| B6 | 10.9 | 0.000783 | 71700 |
| B7 | 11.3 | 0.000832 | 73400 |
| B8 | 26.2 | 0.00208 | 79500 |
| B9 | 19.9 | 0.00258 | 130000 |
| B10 | 18.5 | 0.00181 | 97900 |
| B11 | 25 | 0.00264 | 106000 |
| B12 | 19.8 | 0.00281 | 142000 |
| B13 | 12.9 | 0.00221 | 171000 |
| B14 | 40.5 | 0.00243 | 60000 |

molecular target: T3, human GPC3 on cells (human, UniProt P51654 25-563); assay: flow cytometry, CHO-human GPC3 cells
T3 construct: whole, on cells; One molecule is used for both CHO-hGPC3 transfectants and GPC3+ HepG2 cells; The assay field names the cell; also called CHO-hGPC3 (clone 2B10); CHO-human GPC3
Description: The binding of the antibodies to human GPC3 stably-transfected cells was detected by FACS. CHO-human GPC3 stably-transfected cells prepared in Example 1 in the logarithmic growth phase were adjusted to 5×10⁵ cells/ml with 4% calf serum (Hyclone, SH30626.06). 100 μl/well of cell suspension was added to a 96-well U-plate, and centrifuged at 300 g for 5 min. The supernatant was discarded. 100 μL of gradient diluted antibodies (initial concentration 200 nM, 3-fold dilution, 12 gradients) was added to each well and incubated at 4° C. for 45 min. The secondary antibody Alexa Fluro647 labeled goat anti-human IgG Fc (1:300 dilution) was added at 50 μL/well, incubated on ice for 45 minutes, and detected by flow cytometry.

| Binder | EC50 [nM] |
| --- | --- |
| B1 | 3.73 |
| B2 | 0.38 |
| B3 | 3.59 |
| B4 | 0.46 |
| B5 | 2.87 |
| B6 | 2.78 |
| B7 | 3.35 |
| B8 | 2.79 |
| B9 | 3.68 |
| B10 | 0.91 |
| B11 | 1.07 |
| B12 | 3.39 |
| B13 | 2.1 |
| B14 | 6.69 |

molecular target: recombinant cynomolgus monkey GPC3 full-length protein (cynomolgus monkey, UniProt A0A2K5VK50 24-558); assay: ELISA on coated recombinant cynomolgus monkey GPC3 protein, OD450 [panel Recombinant cynomolgus monkey GPC3 protein]

| Binder | EC50 (read off the curve) [nM] |
| --- | --- |
| B15 | ~0.03 |
| B16 | ~0.03 |
| B17 | ~0.03 |

Molecular target: T1, human CD3εγ-Fc heterodimer
Assay: ELISA, coated human CD3εγ protein
Description: Human CD3 εγ protein was coated overnight at 4° C. After blocking with 2% skim milk, different dilutions of CD3 antibodies was added to each well and incubated for 1 hour. The secondary antibody HPR-labeled goat anti-human IgG Fc was added. After being developed by the TMB solution, the reaction was stopped with the concentrated sulfuric acid, and the absorbance was read at 450 nm (the results are shown in FIG. 12 and Table 8).

| Binder | EC50 [nM] |
| --- | --- |
| B18 | 0.74 |
| B19 | 0.7 |

molecular target: T3, human GPC3 on cells; assay: flow cytometry on human GPC3-CHO stably-transfected cells, MFI

| Binder | EC50 (read off the curve) [nM] |
| --- | --- |
| B15 | ~2 |
| B16 | ~2 |
| B17 | ~2 |

molecular target: T2, recombinant human GPC3 protein; assay: BLI (Octet), antibody on Protein A probe; remark: another data set of the same source
Description: as §1, with “rates. The 49G8 humanized antibody binds to the recombinant GPC3 protein with high affinity. The affinity data is seen in Table 6.” for “rates.”

| Binder | Kd [nM] | koff [s⁻¹] | kon [M⁻¹ s⁻¹] |
| --- | --- | --- | --- |
| B15 | 2 | 0.000187 | 93600 |
| B16 | 2.15 | 0.000193 | 90000 |
| B17 | 2.28 | 0.000205 | 89900 |

molecular target: T2, recombinant human GPC3 protein; assay: ELISA on coated recombinant human GPC3 protein, OD450 [panel Recombinant human GPC3 protein]

| Binder | EC50 (read off the curve) [nM] |
| --- | --- |
| B15 | ~0.03 |
| B16 | ~0.03 |
| B17 | ~0.03 |
